Measured values reported in PMC10667097 (2023).

Molecular target: GST RBX1–CUL1–NEDD8 (human, UniProt Q13616 1-776; P62877 5-108; Q15843 1-76, NEDD8 linked to a specific site in the WHB subdomain | C-terminus linked to the cullin (isopeptide))
Experiment: BLI

Chain of GST RBX1–CUL1–NEDD8 (Q13616 whole entry, chain 1 of 3): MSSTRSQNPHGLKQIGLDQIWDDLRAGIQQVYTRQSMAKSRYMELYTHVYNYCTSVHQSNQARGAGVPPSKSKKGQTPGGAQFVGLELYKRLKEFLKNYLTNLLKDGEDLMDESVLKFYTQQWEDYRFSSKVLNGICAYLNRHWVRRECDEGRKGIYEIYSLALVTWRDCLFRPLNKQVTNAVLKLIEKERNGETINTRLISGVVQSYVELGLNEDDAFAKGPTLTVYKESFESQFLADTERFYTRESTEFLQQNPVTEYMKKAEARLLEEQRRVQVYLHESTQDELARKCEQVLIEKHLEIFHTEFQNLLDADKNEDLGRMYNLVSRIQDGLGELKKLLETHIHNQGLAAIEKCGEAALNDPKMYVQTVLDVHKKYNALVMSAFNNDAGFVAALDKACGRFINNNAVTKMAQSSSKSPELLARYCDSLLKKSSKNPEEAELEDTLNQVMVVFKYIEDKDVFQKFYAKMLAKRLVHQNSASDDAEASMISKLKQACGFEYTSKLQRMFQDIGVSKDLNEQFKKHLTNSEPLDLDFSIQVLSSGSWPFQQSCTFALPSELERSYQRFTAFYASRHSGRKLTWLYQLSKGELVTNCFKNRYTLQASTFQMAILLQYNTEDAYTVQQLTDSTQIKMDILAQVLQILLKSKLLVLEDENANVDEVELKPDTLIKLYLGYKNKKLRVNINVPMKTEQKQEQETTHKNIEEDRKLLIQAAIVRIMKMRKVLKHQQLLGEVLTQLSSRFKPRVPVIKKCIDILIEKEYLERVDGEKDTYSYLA
Chain of GST RBX1–CUL1–NEDD8 (P62877 5-108, chain 2 of 3): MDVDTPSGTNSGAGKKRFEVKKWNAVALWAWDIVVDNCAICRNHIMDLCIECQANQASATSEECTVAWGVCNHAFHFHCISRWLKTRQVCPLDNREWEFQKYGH
Chain of GST RBX1–CUL1–NEDD8 (Q15843 1-76, chain 3 of 3): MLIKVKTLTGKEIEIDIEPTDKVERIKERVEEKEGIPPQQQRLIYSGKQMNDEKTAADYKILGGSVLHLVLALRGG

B1: N8C_Fab3b (Fab, V domains shown)
VH: EVQLVESGGGLVQPGGSLRLSCAASGFNFSSSSIHWVRQAPGKGLEWVASISSSYGYTYYADSVKGRFTISADTSKNTAYLQMNSLRAEDTAVYYCARDPFGWAAHGVGLDYWGQGTLVTVSS
VL: DIQMTQSPSSLSASVGDRVTITCRASQSVSSAVAWYQQKPGKAPKLLIYSASSLYSGVPSRFSGSRSGTDFTLTISSLQPEDFATYYCQQSSYSLITFGQGTKVEIK
Kd: 1.27 nM
